What was measured:
human CTLA-4 = human CTLA-4 (human, UniProt P16410 36-223); assay: FACS binding CHO-K1 cells expressing human CTLA-4
CD47 = CD47 (UniProt Q08722 19-323); assay: FACS
CD47, sequence (Q08722 19-323): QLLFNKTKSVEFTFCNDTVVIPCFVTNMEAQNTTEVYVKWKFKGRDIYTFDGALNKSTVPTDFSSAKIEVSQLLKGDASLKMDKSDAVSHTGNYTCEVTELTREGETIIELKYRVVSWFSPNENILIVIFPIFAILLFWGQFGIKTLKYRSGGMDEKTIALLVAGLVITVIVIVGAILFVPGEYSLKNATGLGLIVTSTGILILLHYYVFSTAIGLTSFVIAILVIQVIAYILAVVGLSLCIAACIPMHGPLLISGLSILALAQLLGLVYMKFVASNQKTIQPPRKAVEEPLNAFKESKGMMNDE

human CTLA-4, sequence (P16410 36-223): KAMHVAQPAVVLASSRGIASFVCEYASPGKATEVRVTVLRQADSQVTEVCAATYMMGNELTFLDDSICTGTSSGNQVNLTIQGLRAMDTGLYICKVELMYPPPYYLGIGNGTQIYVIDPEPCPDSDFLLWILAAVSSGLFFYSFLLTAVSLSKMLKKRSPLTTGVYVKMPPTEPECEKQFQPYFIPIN

| Binder | EC50 (human CTLA-4) | EC50 (CD47) |
| --- | --- | --- |
| anti-CD47 monoclonal antibody (mAb) (antibody, V domains shown) VH: EVQLVQSGAEVKKPGSSVKVSCKASGYSFTHHWIHWVRQAPGQGLEWMGMIDASDSETRLSQKFKDRVTITADKSTSTAYMELSSLRSEDTAVYYCARLGRYYFDYWGQGTTVTVSS VL: EIVLTQSPATLSLSPGERATLSCRASENVGTYISWYQQKPGQAPRLLIYGASNRYTGIPARFSGSGSGTDFTLTISSLEPEDFAVYYCGESYGHLYTFGGGTKVEIKR | ~3.2 nM | 0.905 nM |
| bispecific antibody CTLA4-E-HN (bispecific antibody) heavy: not shown light: EIVLTQSPATLSLSPGERATLSCRASENVGTYISWYQQKPGQAPRLLIYGASNRYTGIPARFSGSGSGTDFTLTISSLEPEDFAVYYCGESYGHLYTFGGGTKVEIKRTVAAPSVFIFPPSDEQLKSGTASVVCLLNNFYPREAKVQWKVDNALQSGNSQESVTEQDSKDSTYSLSSTLTLSKADYEKHKVYACEVTHQGLSSPVTKSFNRGEC | 3.61 nM | 2.3 nM |
| bispecific antibody CTLA4-G15-HC (bispecific antibody) heavy: not shown light: EIVLTQSPATLSLSPGERATLSCRASENVGTYISWYQQKPGQAPRLLIYGASNRYTGIPARFSGSGSGTDFTLTISSLEPEDFAVYYCGESYGHLYTFGGGTKVEIKRTVAAPSVFIFPPSDEQLKSGTASVVCLLNNFYPREAKVQWKVDNALQSGNSQESVTEQDSKDSTYSLSSTLTLSKADYEKHKVYACEVTHQGLSSPVTKSFNRGEC | 6.22 nM | 1.63 nM |
| bispecific antibody CTLA4-E-HC (bispecific antibody) heavy: not shown light: EIVLTQSPATLSLSPGERATLSCRASENVGTYISWYQQKPGQAPRLLIYGASNRYTGIPARFSGSGSGTDFTLTISSLEPEDFAVYYCGESYGHLYTFGGGTKVEIKRTVAAPSVFIFPPSDEQLKSGTASVVCLLNNFYPREAKVQWKVDNALQSGNSQESVTEQDSKDSTYSLSSTLTLSKADYEKHKVYACEVTHQGLSSPVTKSFNRGEC | 7.05 nM | 1.57 nM |
| bispecific antibody CTLA4-G15-HN (bispecific antibody) heavy: not shown light: EIVLTQSPATLSLSPGERATLSCRASENVGTYISWYQQKPGQAPRLLIYGASNRYTGIPARFSGSGSGTDFTLTISSLEPEDFAVYYCGESYGHLYTFGGGTKVEIKRTVAAPSVFIFPPSDEQLKSGTASVVCLLNNFYPREAKVQWKVDNALQSGNSQESVTEQDSKDSTYSLSSTLTLSKADYEKHKVYACEVTHQGLSSPVTKSFNRGEC | 2.93 nM | 1.81 nM |
| bispecific antibody CTLA4-G9-LN (bispecific antibody) light: EVQLVESGGGLVQPGGSLRLSCAASGYTYSRHCLGWFRQAPGKGREAVSTIDSDGSTSYADSVKGRFTISRDNAKNTLYLQMNSLRPEDTAVYYCAIGPNPRYCSGAPNTRGAEHYFGYWGQGTLVTVSSGGGGSGGGSEIVLTQSPATLSLSPGERATLSCRASENVGTYISWYQQKPGQAPRLLIYGASNRYTGIPARFSGSGSGTDFTLTISSLEPEDFAVYYCGESYGHLYTFGGGTKVEIKRTVAAPSVFIFPPSDEQLKSGTASVVCLLNNFYPREAKVQWKVDNALQSGNSQESVTEQDSKDSTYSLSSTLTLSKADYEKHKVYACEVTHQGLSSPVTKSFNRGEC heavy: not shown | 3.59 nM |  |

Reference: patent publication US20220332848A1 (published 2022)
